Earlier results, collected in PMC4046138.

Molecular target: mesothelin (Homo sapiens) (UniProt Q13421)
UniProt Q13421, sequence (Q13421 other isoform, or with tags, fused parts or gaps): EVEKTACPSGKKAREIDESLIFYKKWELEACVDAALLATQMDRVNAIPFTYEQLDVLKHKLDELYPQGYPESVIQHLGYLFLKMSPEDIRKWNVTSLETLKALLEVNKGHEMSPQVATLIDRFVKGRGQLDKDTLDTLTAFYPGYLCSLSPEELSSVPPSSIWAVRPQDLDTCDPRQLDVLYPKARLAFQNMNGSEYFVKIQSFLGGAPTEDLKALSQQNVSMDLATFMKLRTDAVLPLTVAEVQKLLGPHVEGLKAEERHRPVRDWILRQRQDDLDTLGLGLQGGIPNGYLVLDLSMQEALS

## MUC16 (from UniProt Q8WXI7)
  Kd: 5 nM
